Columns and labels:
Format in all cases: biochemical
[1] = system: 3′-O-carbamate or ester blocked nucleotides; assay: template-free DNA synthesis reaction: incorporation of 3′-O-blocked nucleotides; details: template-independent, dNTP1, 2, 3, 5, 6 of Table 2; FIG. 5
Text: The ability of the PolM-loop1 chimera, Hs PolM-Lp1, to incorporate 3′-O-blocked nucleotides was examined in a template-free DNA synthesis reaction.

[2] = system: 3′-O-carbamate or ester blocked nucleotides; assay: incorporation of 3′-O-blocked nucleotides, mutant vs. wild type polymerase, quantified by densitometry; details: for rates of incorporation of 3′-O-carbamate or ester blocked nucleotides as compared to wild type (WT) Hs PolM: densitometry
Text: The incorporation of 3′-O-carbamate or ester blocked nucleotides by the PolM-loop1 chimera, Hs PolM-Lp1, or the truncated PolM-loop1 chimera, Hs tPolM-Lp1 was compared to that of wild type Hs PolM. The amount of incorporation was quantified by densitometry.

[3] = system: 3′-O-blocked adenosine 5′-triphosphates; assay: incorporation of 3′-O-blocked adenosine, comparison with Bt TdT

Molecule | incorporation of 3′-O-carbamate or ester blocked nucleotides [1] | rates of incorporation of 3′-O-carbamate or ester blocked nucleotides as compared to wild type (WT) Hs PolM [2] | Fold increase Hs tPolM-Lp1 vs. Hs PolM-Lp1 ([2]; Blocking group 1) [Fold] | Fold increase Hs tPolM-Lp1 vs. Hs PolM-Lp1 ([2]; Blocking group 2) [Fold] | Fold increase Hs tPolM-Lp1 vs. Hs PolM-Lp1 ([2]; Blocking group 3) [Fold] | Fold increase Hs tPolM-Lp1 vs. Hs PolM-Lp1 ([2]; Blocking group 5) [Fold] | Fold increase Hs tPolM-Lp1 vs. Hs PolM-Lp1 ([2]; Blocking group 6 (artificial base-5SICS)) [Fold] | Fold increase Hs tPolM-Lp1 vs. Hs PolM-Lp1 ([2]; Blocking group 6 (standard base)) [Fold] | increase in incorporation relative to Bt TdT [3] [fold]
Hs PolM-Lp1: Homo sapiens PolM, Loop 1 domain swap (protein) MLPKRRRARVGSPSGDAASSTPPSTRFPGVAIYLVEPRMGRSRRAFLTGLARSKGFRVLDACSSEATHVVMEETSAEEAVSWQERRMAAAPPGCTPPALLDISWLTESLGAGQPVPVECRHRLEVAGPRKGPLSPAWMPAYACQRPTPLTHHNTGLSEALEILAEAAGFEGSEGRLLTFCRAASVLKALPSPVTTLSQLQGLPHFGEHSSRVVQELLEHGVCEEVERVRRSERYQTMKLFTQIFGVGVKTADRWYREGLRTLDDLREQPQKLTQQQKAGLQHHQDLSTPVLRSDVDALQQVVEEAVGQALPGATVTLTGGFRRGKLQGHDVDFLITHPKEGQEAGLLPRVMCRLQDQGLILYHQHQESTFEKLRLPSRKVDALDHFERSFCIFRLPQPPGAAVGGSTRPCPSWKAVRVDLVVAPVSQFPFALLGWTGSKLFQRELRRFSRKEKGLWLNSHGLFDPEQKTFFQAASEEDIFRHLGLEYLPPEQRNA | successfully incorporated | significantly increased |  |  |  |  |  |  | 
Hs tPolM-Lp1: Homo sapiens PolM, Loop 1 domain swap and N-terminal truncation (Δ 1-108) (protein) MLGAGQPVPVECRHRLEVAGPRKGPLSPAWMPAYACQRPTPLTHHNTGLSEALEILAEAAGFEGSEGRLLTFCRAASVLKALPSPVTTLSQLQGLPHFGEHSSRVVQELLEHGVCEEVERVRRSERYQTMKLFTQIFGVGVKTADRWYREGLRTLDDLREQPQKLTQQQKAGLQHHQDLSTPVLRSDVDALQQVVEEAVGQALPGATVTLTGGFRRGKLQGHDVDFLITHPKEGQEAGLLPRVMCRLQDQGLILYHQHQESTFEKLRLPSRKVDALDHFERSFCIFRLPQPPGAAVGGSTRPCPSWKAVRVDLVVAPVSQFPFALLGWTGSKLFQRELRRFSRKEKGLWLNSHGLFDPEQKTFFQAASEEDIFRHLGLEYLPPEQRNA |  | significantly increased | 2.2 | 2.1 | 2.0 | 1.3 | 3.0 | 2.0 | 2.7

— patent US20190078065A1, “MODIFIED DNA POLYMERASES” (SIGMA-ALDRICH CO. LLC, priority 2017, published 2019)
